What is called EC50 (read off the curve) is the concentration needed to bring the measured effect to its halfway point. Read a low EC50 (read off the curve) as higher potency in that assay. One may read the Kd as a measure of binding affinity in units of concentration. The koff is the rate constant with which the complex falls apart. Broadly, the kon is the rate constant with which the complex forms. Low readings indicate slower complex formation, high ones faster complex formation.

The text below walks through data of US20260055188A1 (SHENGHE CHINA BIOPHARMACEUTICAL, published 2026).

The target of test [1] is T1, Human-B7H3 His (manufacturer: Acro, CAT: TB73-H52E2) (human, UniProt Q5ZPR3-2 29-245).
T1 construct: also called human B7H3 protein; B7H3 protein; not shown: His tag
T1 sequence (looked up): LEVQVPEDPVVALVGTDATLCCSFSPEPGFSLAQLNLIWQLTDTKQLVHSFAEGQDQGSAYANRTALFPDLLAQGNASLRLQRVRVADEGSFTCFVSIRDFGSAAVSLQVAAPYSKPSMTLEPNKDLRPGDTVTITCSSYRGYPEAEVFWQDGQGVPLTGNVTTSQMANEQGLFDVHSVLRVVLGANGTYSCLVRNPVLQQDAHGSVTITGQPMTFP
Briefly: ELISA: Human-B7H3 His coated (0.3 µg/mL), antibody titrated, goat anti-human IgG Fc detection, OD450 (Example 3). As to the method:
Human-B7H3 His (manufacturer: Acro, CAT: TB73-H52E2, LOT: 2052-21AXF1-YS) was diluted to 0.3 μg/mL with a coating solution (1×PBS, pH7.4), and coated into a 96-well ELISA plate at 100 μL/well overnight at 4° C. The coating solution was poured off. Each well was washed with 1×PBST at 300 μL, washed 4 times with a plate washer, and patted dry on a flat paper. It was blocked with 3% skim milk powder at 300 μL/well, and incubated at 37° C. for 1 h. The blocking solution was poured off, washed 4 times with a plate washer, and patted dry on a flat paper. Negative control and positive control were set up. […] The variable region of the antibody sequence of the positive control consists of SEQ ID NO: 1 and SEQ ID NO: 5, with the constant region of human IgG1 added (SEQ ID NO: 85 and SEQ ID NO: 86). The positive control and antibody were diluted to 10 μg/mL with 3% skim milk powder as the starting concentration, and then diluted by 3-fold gradient (11 gradients in total). A blank well was set up and only the diluent was added. It was incubated at 37° C. for 1 h at 100 μL/well. The liquid in the well was discarded, washed 4 times with a plate washer, and patted dry on a flat paper. Goat anti-human IgG Fc was diluted with 3% skim milk powder at 1:20000, and incubated at 37° C. for 1 h at 100 μL/well. It was washed 6 times with a plate washer, and patted dry on a flat paper. TMB color developing solution was added at 100 μL/well, and wrapped with aluminum foil. Color development was performed at 37° C. in the dark for 8 min. Termination solution 1M HCl was added to terminate the color development reaction at 100 μL/well. Readings were taken at 450 nm on an ELISA reader.

The target of test [2] is T2, Human-TNFR2-His (manufacturer: SINO, CAT: 10417-H08H) (human, UniProt P20333 23-257).
T2 construct: Bought protein; also called human TNFR2 protein; TNFR2 protein; not shown: His tag
T2 sequence (looked up): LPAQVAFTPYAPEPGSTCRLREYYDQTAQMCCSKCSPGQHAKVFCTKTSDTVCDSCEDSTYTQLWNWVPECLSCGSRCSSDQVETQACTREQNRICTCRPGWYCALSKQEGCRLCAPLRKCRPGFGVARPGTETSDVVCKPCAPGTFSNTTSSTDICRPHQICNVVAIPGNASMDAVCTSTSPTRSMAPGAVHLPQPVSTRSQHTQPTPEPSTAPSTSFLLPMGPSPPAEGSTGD
Briefly: ELISA: Human-TNFR2-His coated (0.3 µg/mL), antibody titrated, goat anti-human IgG Fc detection, OD450 (Example 2). As to the method:
Human-TNFR2-His (manufacturer: SINO, CAT: 10417-H08H, LOT: LC15NO0412) was diluted to 0.3 μg/mL with a coating solution (1×PBS, pH7.4), and coated into a 96-well ELISA plate at 100 μL/well overnight at 4° C. The coating solution was poured off. Each well was washed with 1×PBST at 300 μL, washed 4 times with a plate washer, and patted dry on a flat paper. It was blocked with 3% skim milk powder at 300 μL/well, and incubated at 37° C. for 1 h. The blocking solution was poured off, washed 4 times with a plate washer, and patted dry on a flat paper. Negative control and positive control were set up. […] The positive control and antibody were diluted to 10 μg/mL with 3% skim milk powder as the starting concentration, and then diluted by 3-fold gradient (11 gradients in total). A blank well was set up and only the diluent was added. It was incubated at 37° C. for 1 h at 100 μL/well. The liquid in the well was discarded, washed 4 times with a plate washer, and patted dry on a flat paper. Goat anti-human IgG Fc was diluted with 3% skim milk powder at 1:20000, and incubated at 37° C. for 1 h at 100 μL/well. It was washed 6 times with a plate washer, and patted dry on a flat paper. TMB color developing solution was added at 100 μL/well, and wrapped with aluminum foil. Color development was performed at 37° C. in the dark for 8 min. Termination solution 1M HCl was added to terminate the color development reaction at 100 μL/well. Readings were taken at 450 nm on an ELISA reader.

The target in test [3] is T2, Human-TNFR2-His (manufacturer: SINO, …). Briefly: BLI, antibody on AHC sensor, 100 nM human-TNFR2-His in solution. Here is the method:
The AHC sensor was soaked in 0.02% PBST (0.02% Tween 20, pH 7.4, 1×PBS) as a buffer for 600 s to remove the sucrose covering the sensor surface. The AHC sensor was equilibrated with 0.02% PBST (0.02% Tween 20, pH 7.4, 1×PBS) as a buffer for 60 s, the antibody in the sample plate was solidified for 300 s, and the secondary equilibration buffer was used for 180 s. 100 nM human-TNFR2-His (manufacturer: SINO, CAT: 10417-H08H, LOT: LC12SE2902) protein was bound to the antibody for 300 s and then dissociated for 600 s. After dissociation, 10 mM glycine (pH 2.0) was used as a regeneration buffer for 30 s. The sensor was regenerated with 10 mM glycine (pH 2.0).
For orientation: BLI is a label-free optical method that tracks binding on a fibre tip over time.

Test [4] concerns the target T1, Human-B7H3 His (manufacturer: Acro, …). Description: BLI, antibody on AHC sensor, 100 nM His-tagged protein (Acro TB73-H52E2) in solution.
In test [5] the target is T2, Human-TNFR2-His (manufacturer: SINO, …). Briefly: flow cytometry, bridging: CHOK1-18.2 cells (human Claudin18.2) + 150 nM antibody + human TNFR2-His, anti-His FITC detection. As to the method:
Human TNFR2 protein (SINO, CAT: 10417-H08H) was sequentially added into 96-well plate with 100 μL/well, and after mixing, the 96-well plate was incubated at 4° C. for 1 h. Pre-cooled dilution was added and washed once, centrifuged (3000 rpm, 3 min), and the supernatant was discarded, and the cells were harvested. Fluorescent secondary antibody Anti-6X-his tag antibody (FITC) (manufacturer: abcam, Cat. No.: ab1206, Lot No.: GR3420599-3) was taken and diluted at the used concentration of 1:500. 100 μL of dilution was added to the blank control group, and 100 μL of fluorescent secondary antibody dilution was added to the rest of the sample groups respectively. After incubation for 0.5 h at room temperature and 4° C. protected from light, PBS was added to wash and centrifuged (3000 rpm, 3 min) twice. After discarding the supernatant, 80 μL of the dilution was added and resuspended.
(In flow cytometry, cells or beads pass a laser one at a time.)

B1: TB-A2 (bispecific antibody, human IgG4 S228P, kappa)
light: DIVMTQSPATLSVTPGDRVSLSCRASQSISDYLHWYQQKSHESPRLLIKYASQSISGIPSRFSGSGSGSDFTLSINSVEPEDVGVYYCQNGHSFPLTFGAGTKLELKRTVAAPSVFIFPPSDEQLKSGTASVVCLLNNFYPREAKVQWKVDNALQSGNSQESVTEQDSKDSTYSLSSTLTLSKADYEKHKVYACEVTHQGLSSPVTKSFNRGEC
heavy: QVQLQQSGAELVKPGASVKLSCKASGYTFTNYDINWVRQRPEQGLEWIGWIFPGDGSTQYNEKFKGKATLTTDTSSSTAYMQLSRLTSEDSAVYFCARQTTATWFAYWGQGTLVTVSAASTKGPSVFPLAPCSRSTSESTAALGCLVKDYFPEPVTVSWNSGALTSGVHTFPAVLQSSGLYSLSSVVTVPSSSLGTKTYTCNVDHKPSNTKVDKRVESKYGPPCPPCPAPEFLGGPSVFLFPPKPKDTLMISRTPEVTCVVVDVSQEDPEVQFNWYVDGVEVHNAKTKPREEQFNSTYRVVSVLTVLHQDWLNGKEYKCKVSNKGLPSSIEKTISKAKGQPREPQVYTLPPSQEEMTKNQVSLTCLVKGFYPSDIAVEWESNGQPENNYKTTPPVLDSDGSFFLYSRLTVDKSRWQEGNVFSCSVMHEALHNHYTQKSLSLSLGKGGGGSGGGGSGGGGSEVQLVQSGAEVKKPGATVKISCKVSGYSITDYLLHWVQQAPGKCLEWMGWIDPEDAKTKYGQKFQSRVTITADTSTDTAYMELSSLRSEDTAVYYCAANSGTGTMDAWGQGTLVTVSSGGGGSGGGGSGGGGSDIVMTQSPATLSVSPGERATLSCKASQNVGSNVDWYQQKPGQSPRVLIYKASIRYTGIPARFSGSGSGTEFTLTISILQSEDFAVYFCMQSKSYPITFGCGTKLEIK
notes: also called antibody TB-A2
With B1, in test [1], the “EC50 (read off the curve)” value was about 0.7 nM. Besides, the binding result in test [2] is recorded as “binds”.

B2: TB-B (bispecific antibody, human IgG1, kappa)
light: B1 light
heavy: not shown
notes: also called antibody TB-B
As to B2, the “EC50 (read off the curve)” value in test [1] was about 0.2 µg/mL. For the same molecule, in test [2], the binding result was “binds”.

B3: TB-D1 (bispecific antibody, human IgG1, kappa)
light: B1 light
heavy: not shown
notes: also called antibody TB-D1
For B3, in test [3], the Kd was found to be 1.35 nM, the koff is 0.000531 s⁻¹ and the on-rate constant (kon) amounted to 394000 M⁻¹ s⁻¹. In test [4], this molecule showed a Kd of 9.45 nM, a koff of 0.000311 s⁻¹ and a kon of 33000 M⁻¹ s⁻¹. Further, the “EC50 (read off the curve)” value in test [1] was about 0.2 µg/mL.

B4: TB-A1 (bispecific antibody, human IgG1, kappa)
light: B1 light
heavy: not shown
notes: also called antibody TB-A1
Regarding B4, in test [3], the Kd was 0.234 nM, the off-rate constant (koff) was found to be 5.22e-05 s⁻¹ and the kon came out at 223000 M⁻¹ s⁻¹. For the same molecule, in test [4], the Kd is 22 nM, the koff turned out to be 0.000894 s⁻¹ and the kon stood at 40700 M⁻¹ s⁻¹.

B5: TC-E2 (bispecific antibody, human IgG1, kappa)
light: EIVMTQSPPTLSLSPGERVTLSCKSSQSLLNSGNQKNYLTWYQQKPGQAPRLLIYWASTRESSIPARFSGSGSGTDFTLTISSLQPEDFAVYYCQNNYIYPLTFGGGTKLELKRTVAAPSVFIFPPSDEQLKSGTASVVCLLNNFYPREAKVQWKVDNALQSGNSQESVTEQDSKDSTYSLSSTLTLSKADYEKHKVYACEVTHQGLSSPVTKSFNRGECGGGGSGGGGSEVQLVQSGAEVKKPGATVKISCKVSGYSITDYLLHWVQQAPGKCLEWMGWIDPEDAKTKYGQKFQSRVTITADTSTDTAYMELSSLRSEDTAVYYCAANSGTGTMDAWGQGTLVTVSSGGGGSGGGGSGGGGSDIVMTQSPATLSVSPGERATLSCKASQNVGSNVDWYQQKPGQSPRVLIYKASIRYTGIPARFSGSGSGTEFTLTISILQSEDFAVYFCMQSKSYPITFGCGTKLEIK
heavy: not shown
As for B5, the “E1 Mean FITC-A” value in test [5] came to 260000.

B6: TB-E (bispecific antibody, human IgG1, kappa)
light: DIVMTQSPATLSVTPGDRVSLSCRASQSISDYLHWYQQKSHESPRLLIKYASQSISGIPSRFSGSGSGSDFTLSINSVEPEDVGVYYCQNGHSFPLTFGAGTKLELKRTVAAPSVFIFPPSDEQLKSGTASVVCLLNNFYPREAKVQWKVDNALQSGNSQESVTEQDSKDSTYSLSSTLTLSKADYEKHKVYACEVTHQGLSSPVTKSFNRGECGGGGSGGGGSEVQLVQSGAEVKKPGATVKISCKVSGYSITDYLLHWVQQAPGKCLEWMGWIDPEDAKTKYGQKFQSRVTITADTSTDTAYMELSSLRSEDTAVYYCAANSGTGTMDAWGQGTLVTVSSGGGGSGGGGSGGGGSDIVMTQSPATLSVSPGERATLSCKASQNVGSNVDWYQQKPGQSPRVLIYKASIRYTGIPARFSGSGSGTEFTLTISILQSEDFAVYFCMQSKSYPITFGCGTKLEIK
heavy: not shown
notes: also called antibody TB-E
Regarding B6, the binding result in test [2] is on record as “binds”.

B7: TC-F2 (bispecific antibody, human IgG1, kappa)
light: EVQLVQSGAEVKKPGATVKISCKVSGYSITDYLLHWVQQAPGKCLEWMGWIDPEDAKTKYGQKFQSRVTITADTSTDTAYMELSSLRSEDTAVYYCAANSGTGTMDAWGQGTLVTVSSGGGGSGGGGSGGGGSDIVMTQSPATLSVSPGERATLSCKASQNVGSNVDWYQQKPGQSPRVLIYKASIRYTGIPARFSGSGSGTEFTLTISILQSEDFAVYFCMQSKSYPITFGCGTKLEIKGGGGSGGGGSGGGGSEIVMTQSPPTLSLSPGERVTLSCKSSQSLLNSGNQKNYLTWYQQKPGQAPRLLIYWASTRESSIPARFSGSGSGTDFTLTISSLQPEDFAVYYCQNNYIYPLTFGGGTKLELKRTVAAPSVFIFPPSDEQLKSGTASVVCLLNNFYPREAKVQWKVDNALQSGNSQESVTEQDSKDSTYSLSSTLTLSKADYEKHKVYACEVTHQGLSSPVTKSFNRGEC
heavy: not shown
Take B7: the “E1 Mean FITC-A” value in test [5] came to 248000.

B8: TC-A2 (bispecific antibody, human IgG1, kappa)
light: EIVMTQSPPTLSLSPGERVTLSCKSSQSLLNSGNQKNYLTWYQQKPGQAPRLLIYWASTRESSIPARFSGSGSGTDFTLTISSLQPEDFAVYYCQNNYIYPLTFGGGTKLELKRTVAAPSVFIFPPSDEQLKSGTASVVCLLNNFYPREAKVQWKVDNALQSGNSQESVTEQDSKDSTYSLSSTLTLSKADYEKHKVYACEVTHQGLSSPVTKSFNRGEC
heavy: not shown
Take B8: the “E1 Mean FITC-A” value in test [5] was 217000.

B9: TC-B2 (bispecific antibody, human IgG1, kappa)
light: B8 light
heavy: not shown
In the case of B9, the “E1 Mean FITC-A” value in test [5] turned out to be 139000.
